We go through 2 molecules from patent US20250368754A1 (KANAPH THERAPEUTICS, published 2025).

A value given as a limit tells only on which side of the number the result lay.

Assay [1] deals with T1, recombinant human lymphotoxin beta receptor (LTβR) (human, UniProt P36941 28-227, limits assumed).
T1 construct: neither construct is described; also called human LTβR; recombinant human LTβR protein
As to the kind of experiment: SPR, human LTβR immobilised on CM5, fusion protein as analyte, 1:1 binding model. As for the experimental part:
Specifically, the surface of the CM5 chip was activated with a 1:1 mixture of […], and 5 μg/mL of human LTβR was immobilized for 60 seconds at a rate of 10 μL/min. The remaining active ester groups were blocked with 1 M ethanolamine. […] The diluted fusion proteins were reacted at a rate of 30 μL/min. The association and dissociation times were 180 seconds and 400 seconds, respectively. After the dissociation step, stabilization was performed for 60 seconds, and then the regeneration step was performed for 30 seconds with a 10 mM glycine pH 1.5 solution at a rate of 30 μL/min.
A general note: Surface plasmon resonance follows binding to a sensor surface in real time, without labels.

The target of a further assay is T2, human DcR3 (human, UniProt O95407 30-300).
T2 construct: also called LIGHT receptor DcR3
T2 sequence (looked up): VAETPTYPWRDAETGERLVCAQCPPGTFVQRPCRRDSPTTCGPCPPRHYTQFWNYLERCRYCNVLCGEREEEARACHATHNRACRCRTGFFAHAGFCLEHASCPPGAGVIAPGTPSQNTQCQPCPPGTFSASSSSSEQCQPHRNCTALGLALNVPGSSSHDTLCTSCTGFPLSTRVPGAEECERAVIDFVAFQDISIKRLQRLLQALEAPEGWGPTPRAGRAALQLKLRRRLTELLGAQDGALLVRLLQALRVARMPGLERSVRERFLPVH
Nature of the assay: SPR, human DcR3 immobilised on CM5, fusion protein as analyte, 1:1 binding model. As for the experimental part: (§1) Specifically, the surface of the CM5 chip was activated with a 1:1 mixture of […], and 5 to 6 μg/mL of human DcR3 was immobilized for 60 seconds at a rate of 10 μL/min. The remaining active ester groups were blocked with 1 M ethanolamine. T3.01, T3.07, T3.09, T3.14, and T3.18 were each diluted to 50 nM or 200 nM in 1×HBS-EP+buffer solution and diluted by serial dilution. The diluted fusion proteins were reacted at a rate of 30 μL/min. The association and dissociation times were 180 seconds and 400 seconds, respectively. After the dissociation step, stabilization was performed for 60 seconds, and then the regeneration step was performed for 30 seconds with a 10 mM glycine pH 1.5 solution at a rate of 30 μL/min.

The target of assay [2] is T3, recombinant human herpes virus entry mediator (HVEM) (human, UniProt Q92956 39-202).
T3 construct: neither construct is described; also called human HVEM; recombinant human HVEM protein (R&D systems)
T3 sequence (looked up): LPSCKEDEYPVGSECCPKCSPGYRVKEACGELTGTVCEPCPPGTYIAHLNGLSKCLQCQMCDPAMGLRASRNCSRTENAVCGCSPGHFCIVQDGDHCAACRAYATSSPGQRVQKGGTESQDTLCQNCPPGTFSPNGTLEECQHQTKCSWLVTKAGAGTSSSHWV
As to the kind of experiment: SPR, human HVEM immobilised on the chip (title: PRO121; 6ug/ml human HVEM pH5.5), T3.18 as analyte 0.78125-100 nM. How it is done: as §1, with “HVEM” for “DcR3”, “100” for “50 nM or 200”

Assay [3] concerns the target T4, human LTβR on A375 cells (human, UniProt P36941 31-435). Nature of the assay: cell-based or functional assay.
Assay [4] has as its target T4, human LTβR on A375 cells. As to the kind of experiment: flow cytometry on A375 cells, serial dilution from 500 nM, anti-human IgG detection. How it is done:
Specifically, the A375 cell line was prepared by suspending in a FACS buffer solution at 1×10⁵ cells/100 μL, and treated with 100 μL each of T3.01, T3.07, T3.04, and T3.18 prepared by suspending at 500 nM and diluting by serial dilution. The cells were washed twice with a FACS buffer solution. The cells were stained with an anti-human IgG antibody (Biolegend). The expression ratio of the stained cells was measured using BD LSR and analyzed using FlowJo software.
On the technique in general: A flow cytometer gives signals particle by particle.

In assay [5] the target is T5, human FAP on HEK293-hFAP cells (human, UniProt Q12884 1-760).
T5 construct: whole, on cells; also called human FAP-expressing cell line
T5 sequence (looked up): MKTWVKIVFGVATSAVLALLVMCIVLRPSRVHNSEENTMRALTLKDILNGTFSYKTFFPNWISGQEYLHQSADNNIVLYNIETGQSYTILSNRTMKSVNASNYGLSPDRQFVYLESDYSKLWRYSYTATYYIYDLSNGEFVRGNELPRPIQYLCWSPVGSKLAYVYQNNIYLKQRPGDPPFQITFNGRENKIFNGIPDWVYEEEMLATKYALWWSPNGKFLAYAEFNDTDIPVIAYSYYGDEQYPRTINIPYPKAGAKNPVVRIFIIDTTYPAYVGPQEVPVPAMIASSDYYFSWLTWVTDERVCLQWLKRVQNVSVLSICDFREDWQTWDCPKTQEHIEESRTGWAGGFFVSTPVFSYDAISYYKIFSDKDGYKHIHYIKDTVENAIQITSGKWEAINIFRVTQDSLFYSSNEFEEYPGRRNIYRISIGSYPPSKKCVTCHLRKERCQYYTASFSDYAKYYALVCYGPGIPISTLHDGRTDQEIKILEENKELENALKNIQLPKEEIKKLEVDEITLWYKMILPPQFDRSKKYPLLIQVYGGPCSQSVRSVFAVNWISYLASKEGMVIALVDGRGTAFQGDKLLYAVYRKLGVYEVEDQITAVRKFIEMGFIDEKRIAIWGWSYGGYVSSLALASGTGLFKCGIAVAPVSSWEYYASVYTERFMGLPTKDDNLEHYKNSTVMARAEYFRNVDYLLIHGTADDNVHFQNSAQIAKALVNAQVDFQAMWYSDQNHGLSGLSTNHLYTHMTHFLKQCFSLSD
Nature of the assay: flow cytometry on HEK293-hFAP cells, 1 ug protein per 1x10^5 cells, anti-human IgG detection (axis TMEkine-PE). How it is done:
(§2) Specifically, the cell line was prepared by suspending in a FACS buffer solution at 1×10⁵ cells/100 μL, and treated with 1 μg each of T3.10, T3.01, T3.05, T3.06, T3.14, and T3.18. The cells were washed twice with a FACS buffer solution. The cells were stained with an anti-human IgG antibody (Biolegend). The negative control sample was stained only with an anti-human IgG antibody (Biolegend). The expression ratio of the stained cells was measured using BD LSR and analyzed using FlowJo software.

Assay [6] has as its target T5, human FAP on HEK293-hFAP cells. Nature of the assay: flow cytometry on HEK293-hFAP cells, 1 µg protein, anti-human IgG detection. As for the experimental part:
as §2

In assay [7] the target is T1, recombinant human lymphotoxin beta …. As to the kind of experiment: sandwich ELISA: plate coated with recombinant human LTbR 1 ug/mL, fusion protein from 1 nM in serial dilution, detected with biotinylated recombinant human FAP and streptavidin conjugate, OD 450 nm. As for the experimental part: (i) The recombinant human LTβR protein was suspended at 1 μg/mL, dispensed in a 96-well immune plate, and treated for 24 hours. [0380] (ii) The wells were washed with a wash solution, and then blocking was performed for 1 hour with 1% BSA (bovine serum albumin, Sigma) solution. [0381] (iii) The wells were washed with a wash solution, and then T3.01, T3.14, T3.16, T3.17, T3.18 and T3.10, or T3.05, T3.06, T3.04, T3.14 and T3.10 were suspended at 1 nM and diluted by serial dilution. The wells were treated with the diluted T3.01, T3.14, T3.16, T3.17, T3.18 and T3.10, or T3.05, T3.06, T3.04, T3.14 and T3.10 for 2 hours. […] (iv) The wells were washed with a wash solution, and then treated with the human recombinant FAP-biotin diluted at 0.5 μg/mL for 2 hours. [0383] (v) The wells were washed with a wash solution, and then treated with streptavidin-RP for 20 minutes. [0384] (vi) The wells were washed with a wash solution, and then treated with a substrate solution for 20 minutes. [0385] (vii) The wells were treated with a stop solution, and the absorbance was measured at 450 nm.
A general note: An ELISA detects its analyte on a solid surface through an enzyme-linked reagent.

Assay [8] has as its target T3, recombinant human herpes virus entry …. As to the kind of experiment: sandwich ELISA: plate coated with recombinant human HVEM 1 ug/mL, fusion protein from 1 nM in serial dilution, detected with biotinylated recombinant human FAP and streptavidin conjugate, OD 450 nm. As for the experimental part: Considering that LIGHT of the fusion protein must bind to the herpes virus entry mediator (HVEM) for the action, it was confirmed that T3.01 binds to the recombinant human HVEM, as follows: [0370] (i) The recombinant human HVEM protein (R&D systems) was suspended at 1 μg/mL, dispensed in a 96-well immune plate, and treated for 24 hours. [0371] (ii) The wells were washed with a wash solution, and then blocking was performed for 1 hour with 1% BSA (bovine serum albumin, Sigma) solution. [0372] (iii) The wells were washed with a wash solution, and then T3.01, T3.14, T3.16, T3.17, T3.18 and T3.10, or T3.05, T3.06, T3.04, T3.14 and T3.10 were suspended at 1 nM and diluted by serial dilution. The wells were treated with the diluted T3.01, T3.14, T3.16, T3.17, T3.18 and T3.10, or T3.05, T3.06, T3.04, T3.14 and T3.10 for 2 hours. [0373] (iv) The wells were washed with a wash solution, and then treated with the human recombinant FAP-biotin diluted at 0.5 μg/mL for 2 hours. [0374] (v) The wells were washed with a wash solution, and then treated with streptavidin-RP for 20 minutes. [0375] (vi) The wells were washed with a wash solution, and then treated with a substrate solution for 20 minutes. [0376] (vii) The wells were treated with a stop solution, and the absorbance was measured at 450 nm.

Assay [9] deals with T4, human LTβR on A375 cells. Nature of the assay: flow cytometry on A375 cells, anti-human IgG detection (axis TMEkine-PE); concentration not printed on the sheet.

T4 sequence (P36941 31-435): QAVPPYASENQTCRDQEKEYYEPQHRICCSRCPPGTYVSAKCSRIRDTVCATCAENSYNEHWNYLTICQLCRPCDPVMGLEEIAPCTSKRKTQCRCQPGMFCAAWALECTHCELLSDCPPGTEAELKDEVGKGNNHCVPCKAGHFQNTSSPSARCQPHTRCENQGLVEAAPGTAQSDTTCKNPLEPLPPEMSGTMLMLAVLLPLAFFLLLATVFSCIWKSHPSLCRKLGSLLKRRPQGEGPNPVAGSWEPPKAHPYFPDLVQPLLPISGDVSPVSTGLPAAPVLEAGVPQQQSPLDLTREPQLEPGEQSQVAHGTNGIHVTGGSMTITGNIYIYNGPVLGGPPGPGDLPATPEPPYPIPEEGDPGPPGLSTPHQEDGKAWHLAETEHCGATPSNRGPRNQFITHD
T1 sequence (P36941 28-227 limits assumed): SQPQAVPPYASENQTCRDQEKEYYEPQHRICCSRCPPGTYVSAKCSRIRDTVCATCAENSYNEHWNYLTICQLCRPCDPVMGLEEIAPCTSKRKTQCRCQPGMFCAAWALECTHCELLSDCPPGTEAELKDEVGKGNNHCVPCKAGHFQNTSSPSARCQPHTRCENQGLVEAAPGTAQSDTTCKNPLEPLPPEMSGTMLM

B1: T3.18 (anti-hu FAP/hu scLIGHT(GGSG)-LTb2, hu IgG1 DANG) (bispecific antibody)
heavy: QVQLVQSGAEVKKPGASVKVSCKTSRYTFTEYTIHWVRQAPGQRLEWIGGINPNNGIPNYNQKFKGRVTITVDTSASTAYMELSSLRSEDTAVYYCARRRIAYGYDEGHAMDYWGQGTLVTVSSASTKGPSVFPLAPSSKSTSGGTAALGCLVKDYFPEPVTVSWNSGALTSGVHTFPAVLQSSGLYSLSSVVTVPSSSLGTQTYICNVNHKPSNTKVDKKVEPKSCDKTHTCPPCPAPELLGGPSVFLFPPKPKDTLMISRTPEVTCVVVAVSHEDPEVKFNWYVDGVEVHNAKTKPREEQYGSTYRVVSVLTVLHQDWLNGKEYKCKVSNKALPAPIEKTISKAKGQPREPQVYTLPPSRDELTKNQVSLWCLVKGFYPSDIAVEWESNGQPENNYKTTPPVLDSDGSFFLYSKLTVDKSRWQQGNVFSCSVMHEALHNHYTQKSLSLSPGK
light: not shown
chain: not shown
notes: Knob-into-hole; LIGHT-LTb2 heterotrimer with GGSG linker after LIGHT
Regarding B1, in assay [1], the Kd stood at 0.245 nM, the koff came out at 0.000315 s⁻¹ and the kon was found to be 1.29e+06 M⁻¹ s⁻¹. In the assay with human DcR3, this molecule yielded a Kd of 7.93 nM, a koff of 0.0017 s⁻¹ and a kon of 214000 M⁻¹ s⁻¹. Moreover, the binding result in [2] is “no binding (tested: 100 nM)”. The “IL-8 secretion of A375 cells, EC50 (FIG. 15b)” value with human LTβR on A375 cells [3] was found to be 0.0778 nM. For the same molecule, the “percent of cells bound” value in the assay with human LTβR on A375 cells [4] was at least 96%. Further, the “percent of cells in the positive gate” value in [5] is 99.8%. Also, the “percent of cells bound” value in assay [6] was at least 99%.

B2: T3.10 (anti-hu FAP/null, hu IgG1 DANG) (antibody)
heavy: QVQLVQSGAEVKKPGASVKVSCKTSRYTFTEYTIHWVRQAPGQRLEWIGGINPNNGIPNYNQKFKGRVTITVDTSASTAYMELSSLRSEDTAVYYCARRRIAYGYDEGHAMDYWGQGTLVTVSSASTKGPSVFPLAPSSKSTSGGTAALGCLVKDYFPEPVTVSWNSGALTSGVHTFPAVLQSSGLYSLSSVVTVPSSSLGTQTYICNVNHKPSNTKVDKKVEPKSCDKTHTCPPCPAPELLGGPSVFLFPPKPKDTLMISRTPEVTCVVVAVSHEDPEVKFNWYVDGVEVHNAKTKPREEQYGSTYRVVSVLTVLHQDWLNGKEYKCKVSNKALPAPIEKTISKAKGQPREPQVYTLPPSRDELTKNQVSLWCLVKGFYPSDIAVEWESNGQPENNYKTTPPVLDSDGSFFLYSKLTVDKSRWQQGNVFSCSVMHEALHNHYTQKSLSLSPGK
light: not shown
chain: not shown
notes: One-armed anti-FAP knob-into-hole antibody without LIGHT; used as the control for LIGHT activity
With B2, the binding result in assay [7] is recorded as “no binding (tested: 1000 pM)”; in assay [8] it was “no binding (tested: 1000 pM)”; in the assay with human LTβR on A375 cells [9] it was “no binding”. Also, in assay [5], the “percent of cells in the positive gate” value was 99.3%. Besides, in assay [6], the “percent of cells bound” value is at least 99%.

What is called Kd is the equilibrium constant for the complex coming apart. A word on the koff: it is the first-order rate constant of dissociation. What is called kon is the second-order rate constant of association.
